# Measurements from patent US6407221.
# What was measured:
# Assay in all cases: cell-based or functional assay
# [1] = biological target: CD4-zeta chimeric receptor F2 (human) (UniProt P01730)
# [2] = biological target: CD4-zeta chimeric receptor F3 (human) (UniProt P01730)
# [3] = biological target: native CD4 (human) (UniProt P01730)
# [4] = biological target: CD3 epsilon (human) (UniProt P07766)
# [5] = biological target: human HLA Class 1 antigens
# [6] = biological target: Jurkat Ti β chain (human)
# [7] = biological target: CD8/zeta chimera (human) (UniProt P01732)
# [8] = biological target: wild-type CD8 protein (UniProt P01732)
# Chain of UniProt P01732 (P01732 other isoform, or with tags, fused parts or gaps mutant): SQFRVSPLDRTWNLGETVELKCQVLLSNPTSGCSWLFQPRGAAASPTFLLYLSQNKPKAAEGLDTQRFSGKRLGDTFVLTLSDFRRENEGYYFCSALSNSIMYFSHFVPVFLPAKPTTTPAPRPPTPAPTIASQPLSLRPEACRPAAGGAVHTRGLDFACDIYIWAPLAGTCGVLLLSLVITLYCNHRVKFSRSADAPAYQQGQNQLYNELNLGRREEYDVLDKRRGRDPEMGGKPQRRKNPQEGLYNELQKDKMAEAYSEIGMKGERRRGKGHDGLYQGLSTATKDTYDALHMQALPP
molecule,measurement,setting,value
OKT4A (antibody),"IL2 produced relative to stimulation with Ionomycin, Jurkat clone F2/1A11 (relative to Ionomycin = 100)",[1],86
same,"IL2 produced relative to stimulation with Ionomycin, Jurkat clone F2/1D1 (relative to Ionomycin = 100)",[1],60
same,"absolute level of IL2 produced, Jurkat clone F2/1A11",[1],543 pg/mL
same,"absolute level of IL2 produced, Jurkat clone F2/1D1",[1],683 pg/mL
same,"IL2 produced relative to stimulation with Ionomycin, Jurkat clone F3/2.2 (relative to Ionomycin = 100)",[2],160
same,"IL2 produced relative to stimulation with Ionomycin, Jurkat clone F3/2.7 (relative to Ionomycin = 100)",[2],210
same,"absolute level of IL2 produced, Jurkat clone F3/2.2",[2],1200 pg/mL
same,"absolute level of IL2 produced, Jurkat clone F3/2.7",[2],671 pg/mL
same,"IL2 produced relative to stimulation with Ionomycin, Jurkat clone CD4/1F7 (relative to Ionomycin = 100)",[3],0.3
same,"IL2 produced relative to stimulation with Ionomycin, Jurkat clone CD4/4.1 (relative to Ionomycin = 100)",[3],2
same,"absolute level of IL2 produced, Jurkat clone CD4/1F7",[3],19 pg/mL
same,"absolute level of IL2 produced, Jurkat clone CD4/4.1",[3],9 pg/mL
OKT3 (antibody),"IL2 produced relative to stimulation with Ionomycin, Jurkat clone CD4/1F7 (relative to Ionomycin = 100)",[4],38
same,"IL2 produced relative to stimulation with Ionomycin, Jurkat clone CD4/4.1 (relative to Ionomycin = 100)",[4],65
same,"IL2 produced relative to stimulation with Ionomycin, Jurkat clone F2/1A11 (relative to Ionomycin = 100)",[4],51
same,"IL2 produced relative to stimulation with Ionomycin, Jurkat clone F2/1D1 (relative to Ionomycin = 100)",[4],59
same,"IL2 produced relative to stimulation with Ionomycin, Jurkat clone F3/2.2 (relative to Ionomycin = 100)",[4],65
same,"IL2 produced relative to stimulation with Ionomycin, Jurkat clone F3/2.7 (relative to Ionomycin = 100)",[4],92
same,"absolute level of IL2 produced, Jurkat clone CD4/1F7",[4],2100 pg/mL
same,"absolute level of IL2 produced, Jurkat clone CD4/4.1",[4],309 pg/mL
same,"absolute level of IL2 produced, Jurkat clone F2/1A11",[4],918 pg/mL
same,"absolute level of IL2 produced, Jurkat clone F2/1D1",[4],671 pg/mL
same,"absolute level of IL2 produced, Jurkat clone F3/2.2",[4],481 pg/mL
same,"absolute level of IL2 produced, Jurkat clone F3/2.7",[4],295 pg/mL
W6/32 (antibody),"IL2 produced relative to stimulation with Ionomycin, Jurkat clone CD4/1F7 (relative to Ionomycin = 100)",[5],0.1
same,"IL2 produced relative to stimulation with Ionomycin, Jurkat clone CD4/4.1 (relative to Ionomycin = 100)",[5],0.7
same,"IL2 produced relative to stimulation with Ionomycin, Jurkat clone F2/1A11 (relative to Ionomycin = 100)",[5],10
same,"IL2 produced relative to stimulation with Ionomycin, Jurkat clone F2/1D1 (relative to Ionomycin = 100)",[5],11
same,"IL2 produced relative to stimulation with Ionomycin, Jurkat clone F3/2.2 (relative to Ionomycin = 100)",[5],3
same,"IL-2 (Units/ml), JCD8/zeta 2, W6/32 + PMA, experiment #1",[5],< 0.1 Units/ml
same,"IL-2 (Units/ml), JCD8/zeta 2, W6/32 + PMA, experiment #2",[5],< 0.1 Units/ml
same,"IL-2 (Units/ml), Jurkat CD8, W6/32 + PMA, experiment #1",[5],< 0.1 Units/ml
same,"IL-2 (Units/ml), Jurkat CD8, W6/32 + PMA, experiment #2",[5],< 0.1 Units/ml
same,"absolute level of IL2 produced, Jurkat clone CD4/1F7",[5],3 pg/mL
same,"absolute level of IL2 produced, Jurkat clone CD4/4.1",[5],3 pg/mL
same,"absolute level of IL2 produced, Jurkat clone F2/1A11",[5],104 pg/mL
same,"absolute level of IL2 produced, Jurkat clone F2/1D1",[5],123 pg/mL
same,"absolute level of IL2 produced, Jurkat clone F3/2.2",[5],19 pg/mL
same,"absolute level of IL2 produced, Jurkat clone F3/2.7",[5],0 pg/mL
C305 (antibody),"IL-2 (Units/ml), JCD8/zeta 2, C305 + PMA, experiment #1",[6],3.7 Units/ml
same,"IL-2 (Units/ml), JCD8/zeta 2, C305 + PMA, experiment #2",[6],2.1 Units/ml
same,"IL-2 (Units/ml), Jurkat CD8, C305 + PMA, experiment #1",[6],13.5 Units/ml
same,"IL-2 (Units/ml), Jurkat CD8, C305 + PMA, experiment #2",[6],9.1 Units/ml
same,internalization of the TCR after overnight incubation of JCD8/zeta 2 with saturating C305,[6],94%
"OKT8 (antibody, from another filing, V domains shown) VH: EVQLQQSGAELVKPGASVKLSCTASGFNIKDTYIHFVRQRPEQGLEWIGRIDPANDNTLYASKFQGKATITADTSSNTAYMHLCSLTSGDTAVYYCGRGYGYYVFDHWGQGTTLTVSS VL: DVQINQSPSFLAASPGETITINCRTSRSISQYLAWYQEKPGKTNKLLIYSGSTLQSGIPSRFSGSGSGTDFTLTISGLEPEDFAMYYCQQHNENPLTFGAGTKLELK","IL-2 (Units/ml), JCD8/zeta 2, OKT8 + PMA, experiment #1",[7],6.8 Units/ml
same,"IL-2 (Units/ml), JCD8/zeta 2, OKT8 + PMA, experiment #2",[7],7 Units/ml
same,"IL-2 (Units/ml), Jurkat CD8, OKT8 + PMA, experiment #1",[8],< 0.1 Units/ml
same,"IL-2 (Units/ml), Jurkat CD8, OKT8 + PMA, experiment #2",[8],< 0.1 Units/ml
